Molecular target: full length human PSGL-1 (SEQ ID NO: 3) expressed on heparan sulfate-mutant CHO cells (human) (UniProt Q14242)
Experiment: blocking of VISTA-Fc binding to CHO-PSGL-1 cells (the blocked ligand is VISTA-Fc); cells pre-incubated with antibody and read by flow cytometry or HTRF

Chain of full length human PSGL-1 (SEQ ID NO: 3) expressed on heparan sulfate-mutant CHO cells (human) (Q14242 42-412 limits assumed, change not shown): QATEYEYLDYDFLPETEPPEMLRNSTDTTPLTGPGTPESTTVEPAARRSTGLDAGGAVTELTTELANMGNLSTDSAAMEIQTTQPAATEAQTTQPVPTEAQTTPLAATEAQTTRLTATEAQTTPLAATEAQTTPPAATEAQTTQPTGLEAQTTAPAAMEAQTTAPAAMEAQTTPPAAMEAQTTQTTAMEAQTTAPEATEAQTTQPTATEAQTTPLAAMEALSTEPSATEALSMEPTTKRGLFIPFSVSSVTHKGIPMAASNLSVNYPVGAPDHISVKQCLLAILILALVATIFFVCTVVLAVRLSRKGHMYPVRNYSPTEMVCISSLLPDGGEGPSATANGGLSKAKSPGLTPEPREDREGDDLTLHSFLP

IC50 (read off the curve): 0.06 µg/mL
Substance: anti-PSGL-1 antibody KPL-1 (BD Biosciences or Biolegend)

Source: patent publication US20250129166A1
